Measurements reported in the supplement of paper PMC10126150.
± gives the standard deviation of the averaged measurements.

Tested on: ATP
Experiment: switch fluorescence ratio, 500 uM ATP over buffer (Cy3 cluster intensity, sum of 5 cycles each) (fold (ratio)); higher = stronger signal-on switching upon ATP binding; sequences stand for … in TCGTCGGCAGCGTCAGATGTGTATAAGAGACAGTTTTTTTTTTTTTTTTTTTTTTTTT…TC
Conditions: aptamer strand: ATP DNA aptamer (quencher-CACCTGGGGGAGTATTGCGGAGGAAGG + anchor), 100 nM annealed; ATP concentration: 500 uM
How it was run: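 Switching-strand clusters labelled with Cy3 on a modified Illumina MiSeq flow-cell were annealed to 100 nM quencher-labelled ATP aptamer, imaged in selection buffer, and re-imaged after 15 min with 500 uM ATP at 22 °C. This was done over five cycles with NaOH stripping and re-annealing in between. The fluorescence ratio is summed target-cycle over summed buffer-cycle Cy3 intensity per cluster, averaged per switch-domain sequence, excluding clusters outside 100-1000 RFU.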
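Further: ATP exposure 15 min at 22 °C before imaging.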

Sequence | switch fluorescence ratio
TATAATTTCG | 1.003 ± 0.0024
GGGGAAACAT | 1.08 ± 0.013
TTAAGTGTAA | 0.9697 ± 0.0036
TTTTATTTAT | 1.02 ± 0.053
GTTAGTTGGT | 0.993 ± 0.017
ATTGGGAAGG | 0.965 ± 0.039
GAGCTAAGGA | 0.981 ± 0.029
TGCGGTCGCG | 0.959 ± 0.012
TGGGAATACG | 1.11 ± 0.048
TAGGGGTACT | 1.41 ± 0.61
GTTATTAGCG | 0.969 ± 0.05
CGTCAGGCAT | 1.17 ± 0.026
AAAGACACTC | 1.04 ± 0.071
TTCTGTTTTT | 1.09 ± 0.15
GAGGGGAACC | 0.992 ± 0.032
GGTGAGGGGG | 1 ± 0.068
GTCCACCTAC | 1.38 ± 0.015
TAGTTCGCTT | 1.003 ± 0.0067
TTCAAATGAA | 1 ± 0.016
GCGGATCAGC | 1.01 ± 0.059
ACATTATTTC | 1.05 ± 0.033
ACCCGGGGTC | 1 ± 0.053
TTTAAACCTT | 1.89 ± 1.2
GGTTGTGGGA | 0.98 ± 0.053
ATTTCAGAGG | 1.02 ± 0.017

Sequence | switch fluorescence ratio
ACCTAACACG | 1.19 ± 0.037
TTTCAATATT | 1.03 ± 0.031
CGGTTGGAGC | 0.988 ± 0.042
TAGTTTTTTA | 1.02 ± 0.015
GAAGGTTATG | 1 ± 0.015
TGCTGGCCGG | 0.98 ± 0.022
CGATGAGGTA | 0.968 ± 0.06
CACACAGTCG | 1.09 ± 0.015
TCGTGCAGTT | 1.01 ± 0.015
AAGTTTATGG | 0.9798 ± 0.0057
AGTCTGCCA | 0.977 ± 0.015
CATTTTGATG | 0.966 ± 0.011
AATTGGGGTT | 1.012 ± 0.0052
AGGGAAATGG | 0.979 ± 0.034
ATGCAAACGA | 1.23 ± 0.065
CATAATTAAT | 0.955 ± 0.023
GTTCGGCGAA | 1.02 ± 0.024
GGGGAAAATA | 1.007 ± 0.0048
CTTCGTACAG | 1.02 ± 0.014
GCTGGCTGGC | 1.01 ± 0.11
TAGAGGAGTG | 0.9599 ± 0.0086
GGGAGTCTTG | 0.987 ± 0.015
TCTAGTTTAT | 0.987 ± 0.033
GTGCTTTTTT | 0.993 ± 0.013
GACAGATGGT | 1.01 ± 0.019

Sequence | switch fluorescence ratio
TCAGCTGCAA | 4.21 ± 0.32
GCTAGCGTGG | 1.02 ± 0.091
ATTTCACTGA | 1.03 ± 0.011
TTTTGAGCAC | 1.16 ± 0.26
AATGTAGCAC | 1.048 ± 0.0063
GTTGAAGCCC | 1.013 ± 0.0071
TAAGTCGTTG | 1.03 ± 0.12
TTTGATACGG | 1 ± 0.028
CATGGGGTGT | 1.01 ± 0.013
GGGTAGTCGG | 0.993 ± 0.032
AGGTTAAGGA | 1.04 ± 0.087
GCTCTGGCAA | 1.57 ± 0.07
ACTGTGTTAT | 0.983 ± 0.02
GTTGTCTAAT | 0.9991 ± 0.0073
AGAATCGACG | 0.993 ± 0.056
CAGACGTTTT | 0.9917 ± 0.0094
CGGGTTCGAG | 0.959 ± 0.001
TTATGAGGCT | 1.01 ± 0.013
TATGTTATAT | 0.991 ± 0.029
ATTTCACTTT | 0.9915 ± 0.0085
GAGGGTCATC | 0.935 ± 0.056
TTGGGTCCGG | 1.03 ± 0.038
GGGGATAGAG | 1.01 ± 0.015
GGCGCCGGCT | 0.992 ± 0.079
AATCAGAGTG | 1.01 ± 0.03

Sequence | switch fluorescence ratio
GACAAACCGC | 1.18 ± 0.032
TTTGGCCGTT | 1.2 ± 0.26
CGTGACGGGG | 0.978 ± 0.043
AGTGGTGTCT | 1.01 ± 0.033
TGAACTTGCT | 1.02 ± 0.074
AAGCGGTTAA | 1.011 ± 0.0022
TATGTTTAAT | 0.994 ± 0.041
GGTTAATCGG | 0.9983 ± 0.0029
GGTTGGAGGT | 0.971 ± 0.019
AAAAGGTGG | 0.983 ± 0.011
AGGAAAATGT | 0.984 ± 0.041
GTTTGGATGC | 0.963 ± 0.03
TTGGGGATAG | 1.11 ± 0.17
ATTAAATGGG | 0.976 ± 0.036
TGGACATGTG | 1.05 ± 0.1
TCATCCTAGC | 1.19 ± 0.062
CTAGGGCATA | 1.05 ± 0.047
AAAAATCACT | 1.04 ± 0.039
GGGAAAAATT | 1.013 ± 0.006
CAGGTTTGGC | 0.9775 ± 0.002
TTTGGATACG | 1.01 ± 0.011
ATATAAAAAG | 1.02 ± 0.061
GTGGGAGGCT | 1 ± 0.024
AGGTGTAATT | 0.987 ± 0.031
TTTCTCGTAG | 0.991 ± 0.016

Sequence | switch fluorescence ratio
CCGTTGAGTC | 1.06 ± 0.049
AGCTAGGAGC | 0.972 ± 0.021
TGCATTTAAT | 1.01 ± 0.027
CCTTCAGCGT | 1.73 ± 0.086
TGTTTTAGAA | 1.01 ± 0.012
TTCATGGAGT | 0.983 ± 0.028
GGGGTATCGA | 0.998 ± 0.039
TAATTATGGG | 1.04 ± 0.056
AGTACCATGG | 1.01 ± 0.06
GTGAGAGCAT | 1.05 ± 0.028
TGAATGTAGC | 0.9781 ± 0.0024
AACTGGGGGT | 1.02 ± 0.017
GATGGAGGGA | 1.01 ± 0.028
GGGTGTTTCT | 1.01 ± 0.028
TTGATGGTGC | 1.05 ± 0.038
TGCGATGGTC | 1.18 ± 0.065
TCGTATATTA | 1.02 ± 0.013
TTAGAGCTGG | 1.01 ± 0.027
TAATCGTGCT | 0.973 ± 0.019
AGAGGGTGTG | 0.992 ± 0.034
GGTTGTGTTA | 0.998 ± 0.013
ACCCCGGTCT | 1.04 ± 0.011
GCGGGGGGCG | 1.01 ± 0.041
AAACTTAATG | 1.05 ± 0.061
GGGCTGGGTA | 0.993 ± 0.018

Sequence | switch fluorescence ratio
ACCAAGGGGT | 1.02 ± 0.054
GGCGAAGGAG | 0.999 ± 0.011
GGGGGGTGCG | 0.999 ± 0.019
CAGTATGCAC | 1.01 ± 0.047
TCACTGAGCT | 1.05 ± 0.034
TACTGGGACG | 1.004 ± 0.0068
GGGTTTCAAG | 1.05 ± 0.04
GATTCGTATT | 0.9757 ± 0.0047
CGAGATAAGG | 1 ± 0.014
ACTTAGGCG | 1.05 ± 0.086
TTTGTTACTT | 1.01 ± 0.021
TATACGGTTT | 1.03 ± 0.083
GTTAAGGGGT | 1.007 ± 0.0026
TATTTTGTGT | 0.998 ± 0.036
AAGGGGGGTT | 1.01 ± 0.036
GACGTTTAAG | 0.977 ± 0.029
GTGCTTCGGT | 0.948 ± 0.026
CTCGTCCCCG | 0.994 ± 0.06
CAATGCGTTT | 0.998 ± 0.038
AGCCATAAGG | 1.012 ± 0.0061
TTGGAGGAAT | 1.02 ± 0.014
AAAAGTTTTT | 0.997 ± 0.025
CAGGGGGAAT | 1.1 ± 0.11
TTTGTCAGGT | 0.9692 ± 0.0021
CGTGTGTGTA | 1.07 ± 0.05

Sequence | switch fluorescence ratio
CGTGGTGGGG | 0.992 ± 0.015
GGCGTGGGGA | 1.02 ± 0.017
CTACGGGGCT | 1.01 ± 0.02
AAAAAAGTTT | 1.02 ± 0.033
GTTAGGGCGG | 0.998 ± 0.042
ATGAGAGGGC | 1.054 ± 0.0092
CCCTTGATGC | 1.151 ± 0.008
AGAAAGTCAA | 1.0199 ± 1.9e-05
ATGATCAAAT | 1 ± 0.054
GTTGGTGGCG | 1.02 ± 0.044
AAAACTTGAA | 1.07 ± 0.086
AGGGGATCAA | 0.985 ± 0.015
GAAGGGATGT | 1.01 ± 0.042
CAAGTTTTGT | 1.01 ± 0.012
CTCCGAATTT | 2.17 ± 0.35
TGGTGTCACG | 0.983 ± 0.017
GGGGGAGCCC | 0.9896 ± 0.0091
TAGTGGTTAG | 0.991 ± 0.025
CGGTAGGATT | 1.04 ± 0.014
GGCTGGGGGT | 1.1 ± 0.07
ATGCGGGATT | 1.01 ± 0.023
GAAATAATAA | 1.01 ± 0.011
CGTGGAGTGG | 0.996 ± 0.029
GAGTGGGTGG | 0.99 ± 0.037
AAGGGCTCTG | 1.01 ± 0.046

Sequence | switch fluorescence ratio
GAGGAGCGTT | 0.9804 ± 0.007
AAGATGACGC | 1.12 ± 0.13
TTTTTCCGCT | 1.86 ± 1
GTTGGGGCAG | 0.961 ± 0.034
CTCCTCGTGC | 3.49 ± 0.47
CCATGTGTCG | 1.05 ± 0.064
TCAATCTAAC | 1.35 ± 0.55
CGGCAGCGAG | 1.078 ± 0.0015
GGTTGTACGT | 0.984 ± 0.01
CAAGATTTAT | 0.99 ± 0.023
ATGTCCGGGT | 1.03 ± 0.032
TATTTTTTTA | 0.997 ± 0.039
GAGTTTAATT | 0.999 ± 0.038
CAATTTCCCG | 1.01 ± 0.02
TGTTTGATGG | 1.01 ± 0.038
TCAATGGGGC | 0.979 ± 0.044
AATGAGTCGG | 0.998 ± 0.033
ATTATGTCTT | 0.9878 ± 0.0094
ACGTGGTTGA | 1.05 ± 0.026
CGCAAAGAGG | 1.18 ± 0.11
TTTATTTAGC | 1.02 ± 0.034
TCTGGATTGT | 0.97294 ± 3.9e-05
ATTCGGAATA | 1.06 ± 0.016
AACCTCTCGG | 1.033 ± 0.0039
GCTATAAGTG | 0.969 ± 0.027
